Test results reported in patent US20250352661A1 (MYTHIC THERAPEUTICS, published 2025).

T1: LRRC15 on LRRC15 positive cell lines SAOS2 and G292 (UniProt Q8TF66 22-581, limits assumed)
T1 construct: whole, on cells
T1 sequence (looked up): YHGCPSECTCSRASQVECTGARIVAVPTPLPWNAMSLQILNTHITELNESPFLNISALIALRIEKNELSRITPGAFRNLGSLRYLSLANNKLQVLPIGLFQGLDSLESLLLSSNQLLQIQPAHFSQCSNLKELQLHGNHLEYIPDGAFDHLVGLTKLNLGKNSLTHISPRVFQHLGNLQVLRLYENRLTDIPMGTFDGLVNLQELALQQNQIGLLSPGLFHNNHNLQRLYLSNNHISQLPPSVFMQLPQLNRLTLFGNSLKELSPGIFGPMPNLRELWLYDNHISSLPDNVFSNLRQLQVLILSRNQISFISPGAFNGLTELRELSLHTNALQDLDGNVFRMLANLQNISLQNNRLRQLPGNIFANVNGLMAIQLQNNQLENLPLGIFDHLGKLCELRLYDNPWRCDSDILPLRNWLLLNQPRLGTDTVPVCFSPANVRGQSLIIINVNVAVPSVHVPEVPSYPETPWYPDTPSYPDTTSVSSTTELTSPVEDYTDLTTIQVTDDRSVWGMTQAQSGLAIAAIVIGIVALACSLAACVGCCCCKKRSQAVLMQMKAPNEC

T2: Human LRRC15 Protein, His Tag (Acro Biosystems) (human, UniProt Q8TF66 22-538, limits assumed)
T2 construct: Bought protein with His tag
T2 sequence (looked up): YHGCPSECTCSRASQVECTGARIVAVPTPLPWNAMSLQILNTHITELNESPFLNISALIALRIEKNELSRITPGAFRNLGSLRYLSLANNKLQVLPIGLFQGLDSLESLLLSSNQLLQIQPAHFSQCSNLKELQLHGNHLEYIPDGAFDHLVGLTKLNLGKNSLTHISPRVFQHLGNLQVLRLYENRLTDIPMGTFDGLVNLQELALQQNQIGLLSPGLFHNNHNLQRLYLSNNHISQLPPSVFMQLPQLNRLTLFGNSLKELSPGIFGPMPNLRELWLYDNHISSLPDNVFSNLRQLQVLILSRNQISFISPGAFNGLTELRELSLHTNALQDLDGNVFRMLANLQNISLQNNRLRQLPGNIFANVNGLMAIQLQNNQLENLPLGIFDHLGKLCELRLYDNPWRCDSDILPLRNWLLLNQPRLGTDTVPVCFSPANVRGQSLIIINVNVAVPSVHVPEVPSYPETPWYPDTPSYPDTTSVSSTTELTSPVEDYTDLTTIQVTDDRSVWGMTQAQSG


target: T1, LRRC15 on LRRC15 positive cell lines …; assay: cell binding on SAOS2 cells (LRRC15 positive), pH 7.4; set-up: unit not given here

Affinity	Binder
7.32	MYT9776 (antibody, V domains shown, LC EIK); also called hu24D9 HC Dev Combos, +LC FR4 EIK) VH: EVQLVESGGGLVQPGGSLRLSCTASGFSFSGHYWICWVRQAPGKGLEWVGCIHGGSHDITYYASWAKGRFTISRDTSKNTVYLQKTSLRAEDTAVYYCASDTSYTAYGNFYFNLWGQGTLVTVSS VL: EIVMTQSPSPLSASVGDRVIITCQSSQSVLNNNWLAWYQQKPGKAPKLLIYDASSLASGVPSRFSGSGSGAEFTLTISSLQPDDFATYYCQGEFSCGSADCNAFGQGTKLEIK
1.71	MYT8094 (antibody, IgG1, V domains shown, Humanized 29F1; also called hu29F1 Parental; hu29F1) VH: EVQLVESGGGLVQPGGSLRLSCTASGFSFSSSHWICWVRQAPGKGLEWVGCIYAGSIGSTYYASWAKGRFTISRDTSKNTVYLQMNSLRAEDTAVYYCARAPNDIYNYYFNLWGQGTLVTVSS VL: EIVMTQSPSTLSASVGDRVIITCQASENIYNYLAWYQQKPGKAPKLLIYYASTLASGVPSRFSGSGSGAEFTLTISSLQPDDFATYYCQSGYVSKSSTFGQGTKLTVL
1.58	MYT9521 (antibody, V domains shown, LC descriptor T66D; also called hu29F1 LC Asp Var) VH: EVQLVESGGGLVQPGGSLRLSCTASGFSFSSSHWICWVRQAPGKGLEWVGCIYAGSIGSTYYASWAKGRFTISRDTSKNTVYLQMNSLRAEDTAVYYCARAPNDIYNYYFNLWGQGTLVTVSS VL: EIVMTQSPSTLSASVGDRVIITCQASENIYNYLAWYQQKPGKAPKLLIYYASDLASGVPSRFSGSGSGAEFTLTISSLQPDDFATYYCQSGYVSKSSTFGQGTKLTVL
0.817	MYT9523 (antibody, V domains shown, LC descriptor A68D; also called hu29F1 LC Asp Var) VH: EVQLVESGGGLVQPGGSLRLSCTASGFSFSSSHWICWVRQAPGKGLEWVGCIYAGSIGSTYYASWAKGRFTISRDTSKNTVYLQMNSLRAEDTAVYYCARAPNDIYNYYFNLWGQGTLVTVSS VL: EIVMTQSPSTLSASVGDRVIITCQASENIYNYLAWYQQKPGKAPKLLIYYASTLDSGVPSRFSGSGSGAEFTLTISSLQPDDFATYYCQSGYVSKSSTFGQGTKLTVL
0.352	MYT9731 (antibody, V domains shown, LC descriptor N28E; also called hu29F1 LC Glu Var) VH: EVQLVESGGGLVQPGGSLRLSCTASGFSFSSSHWICWVRQAPGKGLEWVGCIYAGSIGSTYYASWAKGRFTISRDTSKNTVYLQMNSLRAEDTAVYYCARAPNDIYNYYFNLWGQGTLVTVSS VL: EIVMTQSPSTLSASVGDRVIITCQASEEIYNYLAWYQQKPGKAPKLLIYYASTLASGVPSRFSGSGSGAEFTLTISSLQPDDFATYYCQSGYVSKSSTFGQGTKLTVL

target: T2, Human LRRC15 Protein, His Tag (Acro …); assay: BLI; dissociation pH 7.4 black, pH 5.4 grey [2/2); D00014 FIG. 2B (2/2]

binding result	Binder
binds	MYT7916 (antibody, V domains shown, rabbit 24D9 VH T104H; chimeric, human constant regions) VH: QQQLVESGGGLVKPGASLTLTCKASGFSFSGSYWICWVRQAPGKGLEWIGCINGGSLDITYYASWAKGRFTISKASSTTVTLQKTSLTAADTATYFCASDTSYHAYGNFYFNLWGPGTLVTVSS VL: AQVLTQTASPVSAAVGGTVTINCQSSQSVLNNNWLAWYQQKPGQPPKLLIYDASSLASGVPSRFKGSGSGTQFTLTISDLESDDAATYYCQGEFSCGSADCNAFGGGTEVVVKG
binds	MYT7917 (antibody, V domains shown, rabbit 24D9 VH A105H; chimeric, human constant regions) VH: QQQLVESGGGLVKPGASLTLTCKASGFSFSGSYWICWVRQAPGKGLEWIGCINGGSLDITYYASWAKGRFTISKASSTTVTLQKTSLTAADTATYFCASDTSYTHYGNFYFNLWGPGTLVTVSS VL: AQVLTQTASPVSAAVGGTVTINCQSSQSVLNNNWLAWYQQKPGQPPKLLIYDASSLASGVPSRFKGSGSGTQFTLTISDLESDDAATYYCQGEFSCGSADCNAFGGGTEVVVKG
binds	MYT7924 (antibody, V domains shown, rabbit 24D9 VH N112H; chimeric, human constant regions) VH: QQQLVESGGGLVKPGASLTLTCKASGFSFSGSYWICWVRQAPGKGLEWIGCINGGSLDITYYASWAKGRFTISKASSTTVTLQKTSLTAADTATYFCASDTSYTAYGNFYFHLWGPGTLVTVSS VL: AQVLTQTASPVSAAVGGTVTINCQSSQSVLNNNWLAWYQQKPGQPPKLLIYDASSLASGVPSRFKGSGSGTQFTLTISDLESDDAATYYCQGEFSCGSADCNAFGGGTEVVVKG
binds	MYT7922 (antibody, V domains shown, rabbit 24D9 VH Y110H; chimeric, human constant regions) VH: QQQLVESGGGLVKPGASLTLTCKASGFSFSGSYWICWVRQAPGKGLEWIGCINGGSLDITYYASWAKGRFTISKASSTTVTLQKTSLTAADTATYFCASDTSYTAYGNFHFNLWGPGTLVTVSS VL: AQVLTQTASPVSAAVGGTVTINCQSSQSVLNNNWLAWYQQKPGQPPKLLIYDASSLASGVPSRFKGSGSGTQFTLTISDLESDDAATYYCQGEFSCGSADCNAFGGGTEVVVKG
no binding (tested: 50 nM LRRC15)	MYT7919 (antibody, V domains shown, rabbit 24D9 VH G107H; chimeric, human constant regions) VH: QQQLVESGGGLVKPGASLTLTCKASGFSFSGSYWICWVRQAPGKGLEWIGCINGGSLDITYYASWAKGRFTISKASSTTVTLQKTSLTAADTATYFCASDTSYTAYHNFYFNLWGPGTLVTVSS VL: AQVLTQTASPVSAAVGGTVTINCQSSQSVLNNNWLAWYQQKPGQPPKLLIYDASSLASGVPSRFKGSGSGTQFTLTISDLESDDAATYYCQGEFSCGSADCNAFGGGTEVVVKG
binds	MYT7923 (antibody, V domains shown, rabbit 24D9 VH F111H; chimeric, human constant regions) VH: QQQLVESGGGLVKPGASLTLTCKASGFSFSGSYWICWVRQAPGKGLEWIGCINGGSLDITYYASWAKGRFTISKASSTTVTLQKTSLTAADTATYFCASDTSYTAYGNFYHNLWGPGTLVTVSS VL: AQVLTQTASPVSAAVGGTVTINCQSSQSVLNNNWLAWYQQKPGQPPKLLIYDASSLASGVPSRFKGSGSGTQFTLTISDLESDDAATYYCQGEFSCGSADCNAFGGGTEVVVKG
binds	MYT7925 (antibody, V domains shown, rabbit 24D9 VH L113H; chimeric, human constant regions) VH: QQQLVESGGGLVKPGASLTLTCKASGFSFSGSYWICWVRQAPGKGLEWIGCINGGSLDITYYASWAKGRFTISKASSTTVTLQKTSLTAADTATYFCASDTSYTAYGNFYFNHWGPGTLVTVSS VL: AQVLTQTASPVSAAVGGTVTINCQSSQSVLNNNWLAWYQQKPGQPPKLLIYDASSLASGVPSRFKGSGSGTQFTLTISDLESDDAATYYCQGEFSCGSADCNAFGGGTEVVVKG
no binding (tested: 50 nM LRRC15)	MYT7921 (antibody, V domains shown, rabbit 24D9 VH F109H; chimeric, human constant regions) VH: QQQLVESGGGLVKPGASLTLTCKASGFSFSGSYWICWVRQAPGKGLEWIGCINGGSLDITYYASWAKGRFTISKASSTTVTLQKTSLTAADTATYFCASDTSYTAYGNHYFNLWGPGTLVTVSS VL: AQVLTQTASPVSAAVGGTVTINCQSSQSVLNNNWLAWYQQKPGQPPKLLIYDASSLASGVPSRFKGSGSGTQFTLTISDLESDDAATYYCQGEFSCGSADCNAFGGGTEVVVKG
no binding (tested: 50 nM LRRC15)	MYT7920 (antibody, V domains shown, rabbit 24D9 VH N108H; chimeric, human constant regions) VH: QQQLVESGGGLVKPGASLTLTCKASGFSFSGSYWICWVRQAPGKGLEWIGCINGGSLDITYYASWAKGRFTISKASSTTVTLQKTSLTAADTATYFCASDTSYTAYGHFYFNLWGPGTLVTVSS VL: AQVLTQTASPVSAAVGGTVTINCQSSQSVLNNNWLAWYQQKPGQPPKLLIYDASSLASGVPSRFKGSGSGTQFTLTISDLESDDAATYYCQGEFSCGSADCNAFGGGTEVVVKG
binds	MYT7918 (antibody, V domains shown, rabbit 24D9 VH Y106H; chimeric, human constant regions) VH: QQQLVESGGGLVKPGASLTLTCKASGFSFSGSYWICWVRQAPGKGLEWIGCINGGSLDITYYASWAKGRFTISKASSTTVTLQKTSLTAADTATYFCASDTSYTAHGNFYFNLWGPGTLVTVSS VL: AQVLTQTASPVSAAVGGTVTINCQSSQSVLNNNWLAWYQQKPGQPPKLLIYDASSLASGVPSRFKGSGSGTQFTLTISDLESDDAATYYCQGEFSCGSADCNAFGGGTEVVVKG
